# Assay results published in article PMC2760139.
# Key:
# [1] = system: DENV2 capsid protein C, mature WT (Dengue virus type 2 (cDNA clone GenBank U87411)); experiment: filter binding
# [2] = target: mature dengue virus type 2 capsid (C) protein, wild type, recombinant (dengue virus type 2) (UniProt P29990); experiment: SEC-MALS
# [3] = target: mature dengue virus type 2 capsid (C) protein with substitutions L50S-L54S, recombinant (dengue virus type 2) (UniProt P29990); experiment: SEC-MALS
substance,measurement,setting,value
DENV 5'UTR RNA probe (viral 5' terminal region nt 1-160),Kd,[1],22 nM
"mature dengue virus type 2 capsid (C) protein, wild type, recombinant (from UniProt P29990) (natural protein)",stoichiometry N,[2],2
"mature dengue virus type 2 capsid (C) protein with substitutions L50S-L54S, recombinant (from UniProt P29990 1-100) (natural protein)",stoichiometry N,[3],2
